These results are taken from paper PMC12136220.

The target in this assay is human recombinant Hsp60 (human), P10809. The assay can be described thus: cryo-EM structure; purified LAP mixed with Hsp60 at 2:1, incubated 4 h at 4°C; Titan Krios 300 kV with K3 detector, cryoSPARC; LAP-Hsp60 map refined in C1, Hsp60 alone in C7, LAP dimer in C2. The note with it: remark: other sources report otherwise.

B1: human recombinant Hsp60, P10809 27-573 (natural protein)
chain: AKDVKFGADARALMLQGVDLLADAVAVTMGPKGRTVIIEQSWGSPKVTKDGVTVAKSIDLKDKYKNIGAKLVQDVANNTNEEAGDGTTTATVLARSIAKEGFEKISKGANPVEIRRGVMLAVDAVIAELKKQSKPVTTPEEIAQVATISANGDKEIGNIISDAMKKVGRKGVITVKDGKTLNDELEIIEGMKFDRGYISPYFINTSKGQKCEFQDAYVLLSEKKISSIQSIVPALEIANAHRKPLVIIAEDVDGEALSTLVLNRLKVGLQVVAVKAPGFGDNRKNQLKDMAIATGGAVFGEEGLTLNLEDVQPHDLGKVGEVIVTKDDAMLLKGKGDKAQIEKRIQEIIEQLDVTTSEYEKEKLNERLAKLSDGVAVLKVGGTSDVEVNEKKDRVTDALNATRAAVEEGIVLGGGCALLRCIPALDSLTPANEDQKIGIEIIKRTLKIPAMTIAKNAGVEGSLIVEKIMQSSSEVGYDAMAGDFVNMVEKGIIDPTKVVRTALLDAAGVASLLTTAEVVVTEIPKEEKDPGMGAMGGMGGGMGGGMF
For the molecule B1, the stoichiometry N turned out to be 7.
